B1: Human SHP-1 with an N-terminal 6x His tag (enzyme)
chain: not shown
B2: SLAM peptide (cytoplasmic tail of SLAM, 77 aa, singly phosphorylated) (peptide)
peptide: QLRRRGKTNHYQTTVEKKSLTIYAQVQKPGPLQKKLDSFPAQDPCTTIYVAATEPVPESVQETNSITVYASVTLPES
modifications: biotin on the N-terminus; phosphotyrosine in the ITSM (position 327 in the native sequence)
notes: cytoplasmic tail of SLAM, 77 aa; only the last tyrosine (327) is phosphorylated; source: synthetic peptide (Peptide Protein Research)

Tests used:
[1] = molecular target: B2; assay: cell-based or functional assay
[2] = molecular target: B1; assay: SPR; biotinylated peptide on streptavidin-coupled CM5 chip (25-100 RU), SHP-1 injected 45 s at 10 uL/min; Biacore T200; 37°C; 10 mM HEPES pH 7.4, 150 mM NaCl, 3 mM EDTA, 0.05% Tween 20, 1 mM dithiothreitol; constants from the fit of the extended MPDPDE model; conditions: both partners purified

| ratio kcat(tethered)/kcat(solution) from the SPR assay (allosteric activation of SHP-1) [1] | Kd [2] | koff [2] | kon [2] | Binder |
| --- | --- | --- | --- | --- |
| 6.2 fold |  |  |  | B1 |
|  | 130 µM | 1.7 s⁻¹ | 20000 M⁻¹ s⁻¹ | B2 |

Reference: article PMC8204385 (Biophysical Journal, 2021)
